# From US20110118131A1 (published 2011)
# Changes are numbered by the printed parent chain. In names and notes the source's numbering stands.
# B1: ING-1 heavy chain G100D (Fab, V domains shown)
# VH: QIQLVQSGPELKKPGETVKISCKASGYTFTKYGMNWVKQAPGKGLKWMGWINTYTEEPTYGDDFKGRFAFSLETSASTANLQINNLKSEDTATYFCARFDSAVDYWGQGTSVTVSS
# VL: DIVMTQAAFSNPVTLGTSGSISCRSSKSLLHSNGITYLYWYLQKPGQSPQLLIYQMSNLASGVPDRFSSSGSGTDFTLRISRVEAEDVGVYYCAQNLELPRTFGGGTKLEMKR
# B2: ING-1 heavy chain T53Y (Fab, V domains shown)
# VH: B1 VH with T53Y, D100G
# VL: B1 VL
# B3: ING-1 heavy chain T59Q (Fab, V domains shown)
# VH: B1 VH with T59Q, D100G
# VL: B1 VL
# B4: ING-1 heavy chain N52K (Fab, V domains shown)
# VH: B1 VH with N52K, D100G
# VL: B1 VL
# B5: ING-1 heavy chain G100Y (Fab, V domains shown)
# VH: B1 VH with D100Y
# VL: B1 VL
# B6: ING-1 heavy chain N52D (Fab, V domains shown)
# VH: B1 VH with N52D, D100G
# VL: B1 VL
# B7: ING-1 heavy chain W50H (Fab, V domains shown)
# VH: B1 VH with W50H, D100G
# VL: B1 VL
# B8: ING-1 heavy chain N52S (Fab, V domains shown)
# VH: B1 VH with N52S, D100G
# VL: B1 VL
# B9: ING-1 heavy chain N52R (Fab, V domains shown)
# VH: B1 VH with N52R, D100G
# VL: B1 VL
# B10: ING-1 heavy chain N52E (Fab, V domains shown)
# VH: B1 VH with N52E, D100G
# VL: B1 VL
# B11: ING-1 heavy chain T53F (Fab, V domains shown)
# VH: B1 VH with T53F, D100G
# VL: B1 VL
# B12: ING-1 heavy chain T53Q (Fab, V domains shown)
# VH: B1 VH with T53Q, D100G
# VL: B1 VL
# B13: ING-1 heavy chain N52Y (Fab, V domains shown)
# VH: B1 VH with N52Y, D100G
# VL: B1 VL
# B14: ING-1 heavy chain P58N (Fab, V domains shown)
# VH: B1 VH with P58N, D100G
# VL: B1 VL
# B15: ING-1 heavy chain G100H (Fab, V domains shown)
# VH: B1 VH with D100H
# VL: B1 VL
# B16: ING-1 heavy chain T55Y (Fab, V domains shown)
# VH: B1 VH with T55Y, D100G
# VL: B1 VL
# B17: ING-1 heavy chain T53N (Fab, V domains shown)
# VH: B1 VH with T53N, D100G
# VL: B1 VL
# B18: ING-1 heavy chain T53R (Fab, V domains shown)
# VH: B1 VH with T53R, D100G
# VL: B1 VL
# B19: ING-1 heavy chain T55E (Fab, V domains shown)
# VH: B1 VH with T55E, D100G
# VL: B1 VL
# B20: ING-1 heavy chain G100F (Fab, V domains shown)
# VH: B1 VH with D100F
# VL: B1 VL
# B21: ING-1 heavy chain W50F (Fab, V domains shown)
# VH: B1 VH with W50F, D100G
# VL: B1 VL
# B22: ING-1 heavy chain T53W (Fab, V domains shown)
# VH: B1 VH with T53W, D100G
# VL: B1 VL
# B23: ING-1 heavy chain G100E (Fab, V domains shown)
# VH: B1 VH with D100E
# VL: B1 VL
# B24: ING-1 heavy chain N52W (Fab, V domains shown)
# VH: B1 VH with N52W, D100G
# VL: B1 VL
# B25: ING-1 heavy chain N52Q (Fab, V domains shown)
# VH: B1 VH with N52Q, D100G
# VL: B1 VL
# B26: ING-1 heavy chain K31Y (Fab, V domains shown)
# VH: B1 VH with K31Y, D100G
# VL: B1 VL
# B27: ING-1 heavy chain T53H (Fab, V domains shown)
# VH: B1 VH with T53H, D100G
# VL: B1 VL
# B28: ING-1 heavy chain G100W (Fab, V domains shown)
# VH: B1 VH with D100W
# VL: B1 VL
# B29: ING-1 heavy chain T55Q (Fab, V domains shown)
# VH: B1 VH with T55Q, D100G
# VL: B1 VL
# B30: ING-1 heavy chain T55F (Fab, V domains shown)
# VH: B1 VH with T55F, D100G
# VL: B1 VL
# B31: ING-1 heavy chain N52F (Fab, V domains shown)
# VH: B1 VH with N52F, D100G
# VL: B1 VL
# B32: ING-1 heavy chain T53E (Fab, V domains shown)
# VH: B1 VH with T53E, D100G
# VL: B1 VL
# B33: ING-1 heavy chain W50E (Fab, V domains shown)
# VH: B1 VH with W50E, D100G
# VL: B1 VL
# B34: ING-1 heavy chain K31N (Fab, V domains shown)
# VH: B1 VH with K31N, D100G
# VL: B1 VL
# B35: ING-1 heavy chain N52H (Fab, V domains shown)
# VH: B1 VH with N52H, D100G
# VL: B1 VL
# B36: ING-1 heavy chain G100Q (Fab, V domains shown)
# VH: B1 VH with D100Q
# VL: B1 VL
# B37: ING-1 heavy chain T28Q (Fab, V domains shown)
# VH: B1 VH with T28Q, D100G
# VL: B1 VL
# B38: ING-1 heavy chain T55H (Fab, V domains shown)
# VH: B1 VH with T55H, D100G
# VL: B1 VL
# B39: ING-1 heavy chain T53D (Fab, V domains shown)
# VH: B1 VH with T53D, D100G
# VL: B1 VL
# B40: ING-1 heavy chain T30Y (Fab, V domains shown)
# VH: B1 VH with T30Y, D100G
# VL: B1 VL
# B41: ING-1 heavy chain T30G (Fab, V domains shown)
# VH: B1 VH with T30G, D100G
# VL: B1 VL
# B42: ING-1 heavy chain T59H (Fab, V domains shown)
# VH: B1 VH with T59H, D100G
# VL: B1 VL
# B43: ING-1 heavy chain T55W (Fab, V domains shown)
# VH: B1 VH with T55W, D100G
# VL: B1 VL
# B44: ING-1 heavy chain T55D (Fab, V domains shown)
# VH: B1 VH with T55D, D100G
# VL: B1 VL
# Target: T1, Ep-CAM (UniProt P16422 24-265, limits assumed)
# T1 construct: Antigen of the Biacore analysis of ING-1 variants
# T1 sequence (looked up): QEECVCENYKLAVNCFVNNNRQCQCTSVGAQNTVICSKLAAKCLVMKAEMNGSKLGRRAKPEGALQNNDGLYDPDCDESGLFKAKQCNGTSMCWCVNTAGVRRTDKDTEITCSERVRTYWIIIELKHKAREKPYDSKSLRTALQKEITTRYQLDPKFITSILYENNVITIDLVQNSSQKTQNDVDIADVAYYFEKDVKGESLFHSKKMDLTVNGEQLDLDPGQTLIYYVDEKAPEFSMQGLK
# Assay: Biacore, Fab periplasmic extract
Binder,binding result,fold difference in affinity vs original [fold]
B1,no binding,
B2,no binding,
B3,no binding,
B4,no binding,
B5,no binding,
B6,,0.02
B7,,0.02
B8,no binding,
B9,no binding,
B10,no binding,
B11,no binding,
B12,no binding,
B13,no binding,
B14,,0.9
B15,no binding,
B16,,0.03
B17,no binding,
B18,no binding,
B19,no binding,
B20,no binding,
B21,,0.09
B22,no binding,

Binder,binding result,fold difference in affinity vs original [fold]
B23,no binding,
B24,no binding,
B25,no binding,
B26,,1
B27,no binding,
B28,no binding,
B29,,0.03
B30,,0.03
B31,no binding,
B32,no binding,
B33,no binding,
B34,no binding,
B35,,0.02
B36,no binding,
B37,no binding,
B38,,0.05
B39,no binding,
B40,,2
B41,no binding,
B42,,0.4
B43,,0.1
B44,,0.03
